For assay [1], the target named is T1, HLA-B*35:01_… (HLA-PEPTIDE target G5), recombinant biotinylated complex (human, enzymatically biotinylated (BirA)).
T1 construct: also called G5-pHLA
Briefly: BLI (ForteBio Octet HTX), biotinylated G5-pHLA captured on streptavidin SAX biosensor, bispecific in solution, 1:1 Fit.
Source text: The biosensors were then dipped in assay buffer for a baseline. […] The biosensors were finally dipped into wells containing assay buffer to measure the dissociation rate for another 50 seconds. Referencing was completed by having a biosensor with no immobilized ligand dipped into analyte. Kinetic data was processed with Octet™ software using a 1:1 kinetic model with errors within 10%, X² below 3, and R² above 0.9.

In assay [2] the target is T1, HLA-B*35:01_… (HLA-PEPTIDE target G5), …. As to the kind of experiment: BLI (ForteBio Octet HTX), biotinylated G5-pHLA captured on streptavidin SAX biosensor, bispecific in solution, 1:2 Fit.
Assay [3] has as its target T2, HLA-B*35:01_… (G5) presented on cells (human).
T2 construct: whole, on cells; also called G5 on K562 or LN229 cells
As to the kind of experiment: flow cytometry on LN229 cells engineered to express the G5 peptide (LN229-G5-9mer), PE anti-human IgG secondary.
Procedure: Cells were harvested, washed in PBS, and stained with eBioscience Fixable Viability Dye eFluor 450 for 15 minutes at room temperature. Following another wash in PBS+2% FBS, cells were resuspended with bispecifics at varying concentrations. Cells were incubated with bispecifics for 1 hour at 4° C. After another wash, PE-conjugated goat anti-human IgG secondary antibody (Jackson ImmunoResearch) was added at 1:100. After incubating at 4° C. for 45 minutes and washing in PBS+2% FBS, cells were resuspended in PBS+2% FBS and analyzed by flow cytometry. Flow cytometric analysis was performed on the Attune NxT Flow Cytometer (ThermoFisher) using the Attune NxT Software. Data was analyzed using FlowJo.

Assay [4] addresses T3, HLA-A*01:01_… (G2) presented on cells (human).
T3 construct: whole, on cells; K562 transduced with HLA-A*01:01 and pulsed with peptide, or A375 transduced with a 10x peptide cassette; also called G2 on K562 or A375 cells
As to the kind of experiment: flow cytometry, peptide-pulsed K562 cells.
Procedure: Cells were harvested, washed in PBS, and stained with eBioscience Fixable Viability Dye eFluor 450 for 15 minutes at room temperature. Following another wash in PBS+2% FBS, cells were resuspended with bispecifics at varying concentrations. Cells were incubated with bispecifics for 1 hour at 4° C. […] After incubating at 4° C. for 45 minutes and washing in PBS+2% FBS, cells were resuspended in PBS+2% FBS and analyzed by flow cytometry. […] All cell lines were stained and analyzed with bispecific binding using the same methods as the K562 cells.
Flow cytometric analysis was performed on the Attune NxT Flow Cytometer (ThermoFisher) using the Attune NxT Software. Data was analyzed using FlowJo.

The target in assay [5] is T4, HLA-A*01:01_… (HLA-PEPTIDE target G2), recombinant biotinylated complex (human, enzymatically biotinylated (BirA)).
T4 construct: also called G2-pHLA
Briefly: BLI.

The text below walks through data of patent US20240059797A1 (GRITSTONE BIO, published 2024).

B1: 4-G5(1C12)_10AAL hOKT3a (bispecific antibody)
chain: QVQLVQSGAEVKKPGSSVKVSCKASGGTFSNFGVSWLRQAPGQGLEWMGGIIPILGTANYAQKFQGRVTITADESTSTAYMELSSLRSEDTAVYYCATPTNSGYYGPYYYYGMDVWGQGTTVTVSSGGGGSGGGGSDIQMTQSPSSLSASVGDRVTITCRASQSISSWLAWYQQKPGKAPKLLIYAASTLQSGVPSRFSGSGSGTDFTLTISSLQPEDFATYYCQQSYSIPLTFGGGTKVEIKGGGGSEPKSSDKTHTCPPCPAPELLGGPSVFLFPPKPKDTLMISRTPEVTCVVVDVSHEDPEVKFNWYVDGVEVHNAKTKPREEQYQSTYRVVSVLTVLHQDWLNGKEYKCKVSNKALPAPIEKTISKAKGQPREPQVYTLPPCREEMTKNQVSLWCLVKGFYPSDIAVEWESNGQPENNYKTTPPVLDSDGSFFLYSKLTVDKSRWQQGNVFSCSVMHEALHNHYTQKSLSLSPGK
heavy: QVQLVQSGAEVKKPGSSVKVSCKASGGTFSNFGVSWLRQAPGQGLEWMGGIIPILGTANYAQKFQGRVTITADESTSTAYMELSSLRSEDTAVYYCATPTNSGYYGPYYYYGMDVWGQGTTVTVSSGGGGSGGGGSDIQMTQSPSSLSASVGDRVTITCRASQSISSWLAWYQQKPGKAPKLLIYAASTLQSGVPSRFSGSGSGTDFTLTISSLQPEDFATYYCQQSYSIPLTFGGGTKVEIKGGGGSGGGGSQVQLVQSGAEVKKPGASVKVSCKASGYTFTRYTMHWVRQAPGQGLEWMGYINPSRGYTNYNQKFKDRVTLTTDKSSSTAYMELSSLRSEDTAVYYCARYYDDHYSLDYWGQGTLVTVSSASTKGPSVFPLAPSSKSTSGGTAALGCLVKDYFPEPVTVSWNSGALTSGVHTFPAVLQSSGLYSLSSVVTVPSSSLGTQTYICNVNHKPSNTKVDKRVEPKSCDKTHTCPPCPAPELLGGPSVFLFPPKPKDTLMISRTPEVTCVVVDVSHEDPEVKFNWYVDGVEVHNAKTKPREEQYQSTYRVVSVLTVLHQDWLNGKEYKCKVSNKALPAPIEKTISKAKGQPREPQVCTLPPSREEMTKNQVSLSCAVKGFYPSDIAVEWESNGQPENNYKTTPPVLDSDGSFFLVSKLTVDKSRWQQGNVFSCSVMHEALHNRFTQKSLSLSPGK
light: DIQMTQSPSSLSASVGDRVTITCSASSSVSYMNWYQQKPGKAPKRLIYDTSKLASGVPSRFSGSGSGTDFTLTISSLQPEDFATYYCQQWSSNPFTFGQGTKLEIKRTVAAPSVFIFPPSDEQLKSGTASVVCLLNNFYPREAKVQWKVDNALQSGNSQESVTEQDSKDSTYSLSSTLTLSKADYEKHKVYACEVTHQGLSSPVTKSFNRGEC
notes: format 4 diabody; also called G5(1C12)-hOKT3a Format 4 with shortened linkers
With B1, in assay [1], the Kd was 2.2 nM, the koff was determined as 0.00279 s⁻¹ and the kon is 1.27e+06 M⁻¹ s⁻¹. In assay [2], the Kd was 16.1 nM, the off-rate (koff) was found to be 0.00652 s⁻¹ and the association rate constant (kon) turned out to be 405000 M⁻¹ s⁻¹. Besides, in assay [3], the “EC50 (read off the curve)” value was around 1 nM.

B2: 4-anti-CD3-G2(1H11) (bispecific antibody)
chain: not shown
heavy: QVQLVQSGAEVKKPGASVKVSCKASGYTFTNYYMHWVRQAPGQGLEWMGMINPSGGGTSYAQKFQGRVTMTRDTSTSTVYMELSSLRSEDTAVYYCARGNPWELRLDYWGQGTLVTVSSGGGGSGGGGSGGGGSGGGGSDIQMTQSPSSLSASVGDRVTITCQASQDISNYLNWYQQKPGKAPKLLIYAASSLQSGVPSRFSGSGSGTDFTLTISSLQPEDFATYYCQQYYSYPFTFGPGTKVDIKGGGGSGGGGSEVQLVESGGGLVQPGGSLRLSCAASGFTFSTYAMNWVRQAPGKGLEWVGRIRSKYNNYATYYADSVKGRFTISRDDSKNTLYLQMNSLRAEDTAVYYCVRHGNFGDSYVSWFAYWGQGTLVTVSSASTKGPSVFPLAPSSKSTSGGTAALGCLVKDYFPEPVTVSWNSGALTSGVHTFPAVLQSSGLYSLSSVVTVPSSSLGTQTYICNVNHKPSNTKVDKRVEPKSCDKTHTCPPCPAPELLGGPSVFLFPPKPKDTLMISRTPEVTCVVVDVSHEDPEVKFNWYVDGVEVHNAKTKPREEQYQSTYRVVSVLTVLHQDWLNGKEYKCKVSNKALPAPIEKTISKAKGQPREPQVCTLPPSREEMTKNQVSLSCAVKGFYPSDIAVEWESNGQPENNYKTTPPVLDSDGSFFLVSKLTVDKSRWQQGNVFSCSVMHEALHNRFTQKSLSLSPGK
light: QAVVTQEPSLTVSPGGTVTLTCGSSTGAVTTSNYANWVQQKPGKSPRGLIGGTNKRAPGVPARFSGSLLGGKAALTISGAQPEDEADYYCALWYSNHWVFGGGTKLTVLRTVAAPSVFIFPPSDEQLKSGTASVVCLLNNFYPREAKVQWKVDNALQSGNSQESVTEQDSKDSTYSLSSTLTLSKADYEKHKVYACEVTHQGLSSPVTKSFNRGEC
notes: also called 4-G2(1H11)-αCD3
Take B2: the binding result in assay [4] and in assay [5] was “binds” throughout.
